Assays:
[1] = biological target: T1, thrombin (alpha-thrombin) (Homo sapiens, UniProt P00734;P00734 P00734:315-363,P00734:364-622); assay: filter
[2] = biological target: T1, thrombin (alpha-thrombin); assay: filter; 10 nM thrombin
prothrombin = prothrombin (Homo sapiens, UniProt P00734 P00734:44-622); assay: filter; 50 nM prothrombin; details: tags: Athens Research
Description: Dot blot binding assays were performed throughout the selections to monitor the protein binding affinity of the pools. Trace ³²P-labeled RNA was combined with a dilution series of human Thrombin (1 nM-1000 nM) and incubated at room temperature for 30 minutes in 1×DPBS (w/ Ca²⁺ and Mg²⁺) (Gibco, Catalog #14040, Invitrogen, Carlsbad, Calif.) plus 0.1 mg/ml BSA in a final volume of 30 μl. The binding reactions were analyzed by nitrocellulose filtration using a Minifold I dot-blot, 96-well vacuum filtration manifold (Schleicher & Schuell, Keene, N.H.). A three-layer filtration medium was used, consisting (from top to bottom) of Protran nitrocellulose (Schleicher & Schuell, Keene, N.H.), Hybond-P nylon (Amersham Biosciences, Piscataway, N.J.) and GB002 gel blot paper (Schleicher & Schuell, Keene, N.H.). RNA that is bound to protein is captured on the nitrocellulose filter, whereas the non-protein bound RNA is captured on the nylon filter. The gel blot paper was included simply as a supporting medium for the other filters. Following filtration, the filter layers were separated, dried and exposed on a phosphor screen (Amersham Biosciences, Piscataway, N.J.) and quantified using a Storm 860 Phosphorimager® blot imaging system (Amersham Biosciences, Piscataway, N.J.).
Based on pool binding monitored throughout the selections as described above, Round 9 Pools from both Selection #2 and #3 were also cloned using a TOPO TA Cloning kit (Invitrogen, Carlsbad, Calif.) according to manufacturer's instructions, and sequenced. Of the 136 sequences obtained from Round 9 of both selections, 130 unique sequences were selected for assaying in a single-point dot blot screen against thrombin and prothrombin to test for selective binding to thrombin. Clones were ordered from IDT (Coralville, Iowa) at 25 μmole synthesis scale. Clone transcripts were 5′ end labeled with γ̅³²P ATP and spin purified with Centrisep columns (Princeton Separations, Adelphia, N.J.) to remove excess label. Trace amounts of labeled clone were incubated with +/−10 nM Thrombin (or +/−50 nM prothrombin) and 0.1 mg/ml BSA in a total volume of 30 μl 1×DPBS (w/ Ca²⁺ and Mg²⁺) (Gibco, Catalog #14040, Invitrogen, Carlsbad, Calif.) for 30 minutes. Post incubation, the binding reaction applied the dot-blot binding assay apparatus previously described.

B1: ARC2669 (ssDNA)
DNA: ACTGCCTAGGTTGGGTAGGGTGGTGGCAGT
modifications: PS linkage between nt 26 and 27
Kd [1]: 0.129 nM

B2: ARC2662 (ssDNA)
DNA: ACTGCCTAGGTTGGGTAGGGTGGTGGCAGT
modifications: PS linkage between nt 19 and 20
Kd [1]: 0.165 nM

B3: ARC2654 (ssDNA)
DNA: ACTGCCTAGGTTGGGTAGGGTGGTGGCAGT
modifications: PS linkage between nt 11 and 12
Kd [1]: 0.095 nM

B4: ARC2651 (ssDNA)
DNA: ACTGCCTAGGTTGGGTAGGGTGGTGGCAGT
modifications: PS linkage between nt 8 and 9
Kd [1]: 0.111 nM

B5: ARC2672 (ssDNA)
DNA: ACTGCCTAGGTTGGGTAGGGTGGTGGCAGT
modifications: PS linkage between nt 29 and 30
Kd [1]: 0.141 nM

B6: AMX(399)_F3 (ssDNA)
DNA: TCCTTGTCGAGCCTTGGGGTAGTGTTGGTTTGGGTGGCTGAGGATCGATC
binding signal [2]: 9.8 % bound | binding signal (prothrombin): 8.7 % bound

B7: AMX(399)_G3 (ssDNA)
DNA: TCCCATCGAACCTCGAGGGTATTGTTGGCTTGGGTGGCTGAGGATCGATC
binding signal [2]: 20.8 % bound | binding signal (prothrombin): 22.6 % bound

B8: ARC2648 (ssDNA)
DNA: ACTGCCTAGGTTGGGTAGGGTGGTGGCAGT
modifications: PS linkage between nt 5 and 6
Kd [1]: 0.128 nM

B9: ARC2650 (ssDNA)
DNA: ACTGCCTAGGTTGGGTAGGGTGGTGGCAGT
modifications: PS linkage between nt 7 and 8
Kd [1]: 0.23 nM

B10: AMX(398)_C3 (ssDNA)
DNA: TCCCATGTGTTAGATCCGTGTGGTTGGACTGGGTGGCTGAGGATCGATC
binding signal [2]: 10.8 % bound

B11: AMX(399)_H4 (ssDNA)
DNA: TCCCGAGAGATTCAAAAGGGACTGGGCGGTTGGGTGGCTGAGGATCGATC
binding signal [2]: 7.7 % bound

B12: ARC2652 (ssDNA)
DNA: ACTGCCTAGGTTGGGTAGGGTGGTGGCAGT
modifications: PS linkage between nt 9 and 10
Kd [1]: 0.192 nM

B13: AMX(399)_G5 (ssDNA)
DNA: TCCCGGTATCGTCATGCTGGTGGAATTGGTTGGGTGGCTGAGGATCGATC
binding signal [2]: 23.2 % bound | binding signal (prothrombin): 18.9 % bound

B14: AMX(399)_G8 (ssDNA)
DNA: TCCCATCGATCTGTGGTGGTTTTGTGGCTTGGGTGGCTGAGGATCGATC
binding signal [2]: 27.6 % bound | binding signal (prothrombin): 25.9 % bound

B15: ARC2647 (ssDNA)
DNA: ACTGCCTAGGTTGGGTAGGGTGGTGGCAGT
modifications: PS linkage between nt 4 and 5
Kd [1]: 0.161 nM

B16: ARC2664 (ssDNA)
DNA: ACTGCCTAGGTTGGGTAGGGTGGTGGCAGT
modifications: PS linkage between nt 21 and 22
Kd [1]: 0.211 nM

B17: AMX(399)_F4 (ssDNA)
DNA: TCCCGTTCGGTCCGTATACTGGTGGTGGTTGGGTGGCTGAGGATCGATC
binding signal [2]: 28.1 % bound | binding signal (prothrombin): 25 % bound

B18: AMX(399)_F2 (ssDNA)
DNA: TCCCTTGATCCTGGTACATATATTTTCTGGGTGGCTGAGGATCGATC
binding signal [2]: 7.37 % bound | binding signal (prothrombin): 7.92 % bound

B19: AMX(399)_F10 (ssDNA)
DNA: TCCCGTCGGTCCGTTCGGTATTTTTTTCTGGGTGGCTGAGGATCGATC
binding signal [2]: 21.3 % bound | binding signal (prothrombin): 22.1 % bound

B20: AMX(399)_G2 (ssDNA)
DNA: TCCCATCGTCTGTGGTATAGGAACTTCTGGGTGGCTGAGGATCGATC
binding signal [2]: 18.8 % bound | binding signal (prothrombin): 7.28 % bound

B21: ARC2671 (ssDNA)
DNA: ACTGCCTAGGTTGGGTAGGGTGGTGGCAGT
modifications: PS linkage between nt 28 and 29
Kd [1]: 0.158 nM

B22: AMX(399)_F6 (ssDNA)
DNA: TCCCAAGATCGATGCTGGTAGTGTTTTCTGGGTGGCTGAGGATCGATC
binding signal [2]: 10 % bound | binding signal (prothrombin): 11.9 % bound

B23: ARC2649 (ssDNA)
DNA: ACTGCCTAGGTTGGGTAGGGTGGTGGCAGT
modifications: PS linkage between nt 6 and 7
Kd [1]: 0.264 nM

B24: ARC2665 (ssDNA)
DNA: ACTGCCTAGGTTGGGTAGGGTGGTGGCAGT
modifications: PS linkage between nt 22 and 23
Kd [1]: 0.121 nM

B25: ARC2668 (ssDNA)
DNA: ACTGCCTAGGTTGGGTAGGGTGGTGGCAGT
modifications: PS linkage between nt 25 and 26
Kd [1]: 0.159 nM

B26: AMX(398)_B11 (ssDNA)
DNA: TCCCGCTCGATTTCGAAGAATGGTTGGTTTGGGTGGCTGAGGATCGATC
binding signal [2]: 9.76 % bound

B27: AMX(399)_F11 (ssDNA)
DNA: TCCCTATGGATTCGGGGTACGTTAGTTCTGGGTGGCTGAGGATCGATC
binding signal [2]: 35.1 % bound | binding signal (prothrombin): 35.7 % bound

B28: AMX(399)_F1 (ssDNA)
DNA: TCCCGTGATCTCTGGGGTAACGTCTTGGTGTGGGTGGCTGAGGATCGATC
binding signal [2]: 16.7 % bound | binding signal (prothrombin): 19.4 % bound

B29: ARC2667 (ssDNA)
DNA: ACTGCCTAGGTTGGGTAGGGTGGTGGCAGT
modifications: PS linkage between nt 24 and 25
Kd [1]: 0.459 nM

B30: ARC2646 (ssDNA)
DNA: ACTGCCTAGGTTGGGTAGGGTGGTGGCAGT
modifications: PS linkage between nt 3 and 4
Kd [1]: 0.169 nM

B31: AMX(399)_E12 (ssDNA)
DNA: TCCCGAGATCTTTATAGGGTATTGTTGGTTGGGGTGGCTGAGGATCGATC
binding signal [2]: 20.3 % bound | binding signal (prothrombin): 25.1 % bound

B32: AMX(399)_F7 (ssDNA)
DNA: TCCCGATCGGTCCCAAGGGTATTGTTGGTTTGGGTGGCTGAGGATCGATC
binding signal [2]: 29.6 % bound | binding signal (prothrombin): 34.2 % bound

B33: AMX(399)_H2 (ssDNA)
DNA: TCCCGACTTTAGATCCGTGTTGGATGGCCTGGGTGGCTGAGGATCGATC
binding signal [2]: 5.49 % bound

B34: AMX(399)_F9 (ssDNA)
DNA: TCCCGCTATTCGATCTTCAATTGGGTGGTCAGGGTGGCTGAGGATCGATC
binding signal [2]: 25.2 % bound | binding signal (prothrombin): 26 % bound

B35: ARC2663 (ssDNA)
DNA: ACTGCCTAGGTTGGGTAGGGTGGTGGCAGT
modifications: PS linkage between nt 20 and 21
Kd [1]: 0.18 nM

B36: AMX(399)_G10 (ssDNA)
DNA: TCCCGATCGCTGTCCTAGGATGGGTAGGGTGGTGGCTGAGGATCGATC
binding signal [2]: 38.4 % bound

B37: AMX(399)_G9 (ssDNA)
DNA: TCCCGTGAGAGCTGGGGTGTTTATATGGGTCGGGTGGCTGAGGATCGATC
binding signal [2]: 21.3 % bound | binding signal (prothrombin): 22.5 % bound

B38: ARC2670 (ssDNA)
DNA: ACTGCCTAGGTTGGGTAGGGTGGTGGCAGT
modifications: PS linkage between nt 27 and 28
Kd [1]: 0.16 nM

B39: AMX(399)_G6 (ssDNA)
DNA: TCCCATCGATCAGTGGTGGCTTGGCTGGTTTGGGTGGCTGAGGATCGATC
binding signal [2]: 39.7 % bound | binding signal (prothrombin): 38.6 % bound

Reference: patent US20090221680, “Aptamers that bind thrombin with high affinity” (published 2009)
